Laboratory results from patent US20250090695A1, “IMMUNOSTIMULANT-CYTOTOXIC CONJUGATE COMPOSITION AND METHODS FOR CANCER TREATMENT” (The Research Foundation for the State University of New York, priority 2022, published 2025).

Legend:
in vivo = conditions: C57BL/6J, mouse, total radioactivity
[1] = tested on: CD8+ and CD4+ T-cell populations; test: T-cell population analysis in spleen and tumor of RM1-PGLS bearing mice; assay type: in vivo; set-up: unit not given here; conditions: RM1-PGLS bearing C57BL/6J mice
Procedure: FIG. 12A-12B show graphical representations of T-cell population analysis measuring cell viability in the spleen (FIG. 12A). and in the tumor (FIG. 12B) in vivo for subjects having RM1-PGLS tumors with either an experimental ^177Lu-RIMS compound, or a control compound selected from: ^177Lu-PSMA-617, unlabeled Lu-RIMS, or a control vehicle.
^177Lu-RIMS-1 and control compounds were evaluated for immune cell recruitment.

T-cells (CD3) = test: Immuno-PET ROI analysis of 89Zr-DFO-anti-CD3 after therapy (tumor infiltrating T-cells); assay type: in vivo, murine subjects
Procedure: FIG. 13A-13C describes a method and results for T-cell detection using immuno-positron emission tomography (PET).
FIG. 14A-14D show graphical representations of tumor infiltrating T-cell analysis after administration of a therapeutic compound or control. Infiltration was measured using immuno-positron emission tomography (PET).

[2] = OLINDA dosimetry to adult male from mouse biodistribution
[3] = Biodistribution Blood (% ID/g ± SD)
[4] = Biodistribution Bone (% ID/g ± SD)
[5] = Biodistribution Heart (% ID/g ± SD)
[6] = Biodistribution Kidney (% ID/g ± SD)
[7] = Biodistribution Liver (% ID/g ± SD)
[8] = Biodistribution Muscle (% ID/g ± SD)
[9] = Biodistribution RM1-PGLS tumor (% ID/g ± SD)
[10] = Biodistribution Sm Int (% ID/g ± SD)
[11] = Biodistribution Spleen (% ID/g ± SD)

## CCCCc1nc2c(N)nc3ccccc3c2n1Cc1ccc(CNC(=O)OCc2ccc(NC(=O)[C@H](C)NC(=O)[C@@H](NC(=O)CCCCC(=O)N[C@@H](CCCCNC(=O)CN3CCN(CC(=O)O)CCN(CC(=O)O)CCN(CC(=O)O)CC3)C(=O)NC[C@H]3CC[C@H](C(=O)N[C@@H](Cc4ccc5ccccc5c4)C(=O)NCCCC[C@H](NC(=O)N[C@@H](CCC(=O)O)C(=O)O)C(=O)O)CC3)C(C)C)cc2)cc1 [^177Lu-RIMS-1, metal not drawn]
In vivo; [3]
  tissue uptake at 2 h: 2.28 ± 0.29 %ID/g
  tissue uptake at 24 h: 0.11 ± 0.01 %ID/g
  tissue uptake at 72 h: 0.2 %ID/g
In vivo; [4]
  tissue uptake at 2 h: 1.03 ± 0.43 %ID/g
  tissue uptake at 24 h: 0.24 ± 0.1 %ID/g
  tissue uptake at 72 h: 0.14 ± 0.02 %ID/g
In vivo; [5]
  tissue uptake at 2 h: 0.83 ± 0.09 %ID/g
  tissue uptake at 24 h: 0.13 ± 0.11 %ID/g
  tissue uptake at 72 h: 0.03 ± 0.01 %ID/g
In vivo; [6]
  tissue uptake at 2 h: 15.3 ± 3.61 %ID/g
  tissue uptake at 24 h: 5.03 ± 2.2 %ID/g
  tissue uptake at 72 h: 1.66 ± 0.37 %ID/g
In vivo; [7]
  tissue uptake at 2 h: 23.4 ± 6.93 %ID/g
  tissue uptake at 24 h: 8.69 ± 1.53 %ID/g
  tissue uptake at 72 h: 7.28 ± 1.06 %ID/g
In vivo; [8]
  tissue uptake at 2 h: 0.27 ± 0.08 %ID/g
  tissue uptake at 24 h: 0.04 ± 0.03 %ID/g
  tissue uptake at 72 h: 0.02 ± 0.01 %ID/g
In vivo; [9]
  tissue uptake at 2 h: 1.98 ± 0.37 %ID/g
  tissue uptake at 24 h: 0.66 ± 0.24 %ID/g
  tissue uptake at 72 h: 0.23 ± 0.06 %ID/g
In vivo; [10]
  tissue uptake at 2 h: 0.55 ± 0.3 %ID/g
  tissue uptake at 24 h: 0.07 ± 0.02 %ID/g
  tissue uptake at 72 h: 0.05 ± 0.01 %ID/g
In vivo; [11]
  tissue uptake at 2 h: 10.3 ± 2.96 %ID/g
  tissue uptake at 24 h: 2.16 ± 0.73 %ID/g
  tissue uptake at 72 h: 1.14 ± 0.36 %ID/g
[1]; Spleen
  Total CD4+ T-cell population: 14.51 ± 2.24
  Total CD8+ T-cell population: 7.70 ± 0.84
[1]; Tumor
  Total CD4+ T-cell population: 2.07 ± 1.54
  Total CD8+ T-cell population: 4.72 ± 2.70
T-cells (CD3); Blood, 8 days after administration of therapy
  % Injected Dose/cc of 89Zr-DFO-anti-CD3 (ROI): 7.95 ± 0.75 % Injected Dose/cc
T-cells (CD3); Blood, 9 days after administration of therapy
  % Injected Dose/cc of 89Zr-DFO-anti-CD3 (ROI): 7.075 ± 0.94 % Injected Dose/cc
T-cells (CD3); Blood, 10 days after administration of therapy
  % Injected Dose/cc of 89Zr-DFO-anti-CD3 (ROI): 4.98 ± 0.61 % Injected Dose/cc
T-cells (CD3); Blood, 11 days after administration of therapy
  % Injected Dose/cc of 89Zr-DFO-anti-CD3 (ROI): 4.33 ± 1.40 % Injected Dose/cc
T-cells (CD3); Blood, 12 days after administration of therapy
  % Injected Dose/cc of 89Zr-DFO-anti-CD3 (ROI): 3.07 ± 1.23 % Injected Dose/cc
T-cells (CD3); Spleen, 8 days after administration of therapy
  % Injected Dose/cc of 89Zr-DFO-anti-CD3 (ROI): 15.65 ± 0.96 % Injected Dose/cc
T-cells (CD3); Spleen, 9 days after administration of therapy
  % Injected Dose/cc of 89Zr-DFO-anti-CD3 (ROI): 19.39 ± 3.46 % Injected Dose/cc
T-cells (CD3); Spleen, 10 days after administration of therapy
  % Injected Dose/cc of 89Zr-DFO-anti-CD3 (ROI): 18.45 ± 1.30 % Injected Dose/cc
T-cells (CD3); Spleen, 11 days after administration of therapy
  % Injected Dose/cc of 89Zr-DFO-anti-CD3 (ROI): 19.06 ± 2.34 % Injected Dose/cc
T-cells (CD3); Spleen, 12 days after administration of therapy
  % Injected Dose/cc of 89Zr-DFO-anti-CD3 (ROI): 18.54 ± 1.04 % Injected Dose/cc
T-cells (CD3); Tumor, 8 days after administration of therapy
  % Injected Dose/cc of 89Zr-DFO-anti-CD3 (ROI): 15.85 ± 3.12 % Injected Dose/cc
T-cells (CD3); Tumor, 9 days after administration of therapy
  % Injected Dose/cc of 89Zr-DFO-anti-CD3 (ROI): 14.94 ± 2.65 % Injected Dose/cc
T-cells (CD3); Tumor, 10 days after administration of therapy
  % Injected Dose/cc of 89Zr-DFO-anti-CD3 (ROI): 13.74 ± 3.74 % Injected Dose/cc
T-cells (CD3); Tumor, 11 days after administration of therapy
  % Injected Dose/cc of 89Zr-DFO-anti-CD3 (ROI): 12.20 ± 4.43 % Injected Dose/cc
T-cells (CD3); Tumor, 12 days after administration of therapy
  % Injected Dose/cc of 89Zr-DFO-anti-CD3 (ROI): 11.83 ± 5.22 % Injected Dose/cc
[2]; Target Organ Adrenals
  OLINDA dosimetry to Adult Male, Adrenals: 8.71 μSv/MBq
[2]; Target Organ Brain
  OLINDA dosimetry to Adult Male, Brain: 0.02 μSv/MBq
[2]; Target Organ Esophagus
  OLINDA dosimetry to Adult Male, Esophagus: 2.03 μSv/MBq
